The source of these data is patent publication US20250011363A1, “OPTIMIZED SHORTENED PEPTIDE THAT BINDS TO ACETYLCHOLINE RECEPTOR, AND USE THEREOF” (SKINMED CO., LTD., priority 2021, published 2025).

This assay has as its target acetylcholine receptor (Homo sapiens, UniProt P02708). In words: SPR binding affinity (RU) of optimized 5mer/6mer/7mer peptides, Examples 6-7. As to conditions: SPR, peptides tested at 10 μM. On the procedure: Based on the frequencies of occurrence of the top 7 amino acids from Table 7 in Example 5, 600 peptides comprising these amino acids (top combinations) and those comprising the 13 less frequently occurring amino acids (bottom combinations) were synthesized for each series of 5mer, 6mer-1, and 6mer-2. The binding affinity of each sequence for the acetylcholine receptor was measured using Surface Plasmon Resonance (SPR) analysis method. The peptides were tested at a concentration of 10 μM. Additionally, the average binding affinities of the top and bottom combinations in each series are depicted in FIGS. 5-7.
Representative peptides identified in Example 6, two in each library, including 5mers (73, 311) and 6mers-1 (43, 210) and 6mers-2 (136, 233), were compared with the pre-optimized 6mer, 5mer-ND, and Synake.
In general terms: SPR reads the build-up and loss of mass on a sensor chip optically.

Where [1] appears, read: 5mer Top sequence (top combinations).
Where [2] appears, read: Resonance Units, 5mer Bottom sequence (bottom combinations).

acetylcholine receptor, sequence (P02708 21-457): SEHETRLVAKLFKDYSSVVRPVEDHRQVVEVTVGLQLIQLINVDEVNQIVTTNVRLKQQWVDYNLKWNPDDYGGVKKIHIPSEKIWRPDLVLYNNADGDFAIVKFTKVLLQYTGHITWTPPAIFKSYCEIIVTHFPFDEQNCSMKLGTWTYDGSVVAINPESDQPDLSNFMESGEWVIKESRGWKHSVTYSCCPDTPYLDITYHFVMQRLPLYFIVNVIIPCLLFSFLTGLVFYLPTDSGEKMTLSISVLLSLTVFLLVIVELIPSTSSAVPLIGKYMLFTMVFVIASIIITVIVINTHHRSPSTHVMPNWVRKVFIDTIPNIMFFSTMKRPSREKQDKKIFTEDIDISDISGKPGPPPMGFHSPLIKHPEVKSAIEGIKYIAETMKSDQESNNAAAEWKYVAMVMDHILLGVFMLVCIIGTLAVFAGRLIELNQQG

Turning to 5mer-550 (RQQSR), under setting [1], the Binding affinity was found to be 83 Ru.
5mer-551 (RWQYR): the Binding affinity under setting [1] is on record as 59 Ru.
In the case of 5mer-552 (RLYSR), under setting [1], the Binding affinity came to 63 Ru.
The same measure, in the same setting: the figure for 5mer-553 (KLLSR) is 72 Ru.
As to 5mer-554 (RLLSK), under setting [1], the Binding affinity is reported as 65 Ru.
Same read-out and setting: the figure for 5mer-555 (KVQCK) is 71 Ru; for 5mer-556 (RVIYK) it is 52 Ru; for 5mer-557 (KQRRK) it is 87 Ru.
Consider 5mer-558 (RWRYK), for which the Binding affinity under setting [1] amounted to 84 Ru.
For the substance 5mer-559 (KQQLK), the Binding affinity under setting [1] stood at 81 Ru.
For the substance 5mer-560 (KWYQR), under setting [1], the Binding affinity stood at 59 Ru.
Regarding 5mer-561 (KWRCK), the Binding affinity under setting [1] stood at 72 Ru.
Consider 5mer-562 (RVRQR), for which the Binding affinity under setting [1] worked out at 70 Ru.
For the substance 5mer-563 (RLVLK), the Binding affinity under setting [1] was 60 Ru.
Turning to 5mer-564 (RSRYR), under setting [1], the Binding affinity is 74 Ru.
As for 5mer-565 (RLVSK), under setting [1], the Binding affinity is 77 Ru.
In the case of 5mer-566 (KQLYK), the Binding affinity under setting [1] stood at 78 Ru.
As for 5mer-567 (RRYCK), the Binding affinity under setting [1] was 63 Ru.
Turning to 5mer-568 (KQITR), under setting [1], the Binding affinity was 64 Ru.
In the case of 5mer-569 (RQQRK), the Binding affinity under setting [1] worked out at 79 Ru.
The same measure, in the same setting: the figure for 5mer-570 (KLVRR) is 56 Ru; for 5mer-571 (RRLTK) it is 51 Ru; for 5mer-572 (KLRTK) it is 58 Ru.
Same read-out and setting: the figure for 5mer-573 (RSIYR) is 84 Ru; for 5mer-574 (KGFTR) it is 59 Ru.
5mer-575 (KGFYR): the Binding affinity under setting [1] is reported as 69 Ru.
With 5mer-576 (RLFRK), the Binding affinity under setting [1] is listed as 62 Ru.
With 5mer-577 (KLVTK), the Binding affinity under setting [1] came out at 77 Ru.
Regarding 5mer-578 (KSVLR), under setting [1], the Binding affinity was 65 Ru.
On to 5mer-579 (RSLYK), for which, under setting [1], the Binding affinity is listed as 53 Ru.
Still for that read-out and setting: the figure for 5mer-580 (RGYTR) is 70 Ru; for 5mer-581 (KGVLR) it is 65 Ru; for 5mer-582 (RGICK) it is 82 Ru.
With 5mer-583 (KVVYR), the Binding affinity under setting [1] was 75 Ru.
On the same count and under the same terms, the figure for 5mer-584 (KQIQK) is 76 Ru; for 5mer-585 (RSVSK) it is 74 Ru; for 5mer-586 (KGRRR) it is 78 Ru.
As to 5mer-587 (RVITR), under setting [1], the Binding affinity amounted to 66 Ru.
On to 5mer-588 (RSFTR), for which the Binding affinity under setting [1] came to 60 Ru.
Turning to 5mer-589 (KGLCR), the Binding affinity under setting [1] is 58 Ru.
Consider 5mer-590 (KQYTK), for which, under setting [1], the Binding affinity amounted to 81 Ru.
Consider 5mer-591 (RVYTK), for which the Binding affinity under setting [1] turned out to be 61 Ru.
Same read-out and setting: the value for 5mer-592 (RWLCR) was 56 Ru; that for 5mer-593 (KQYLK) was 77 Ru; that for 5mer-594 (KQYSR) was 50 Ru.
On to 5mer-595 (KWQQR), for which, under setting [1], the Binding affinity worked out at 58 Ru.
In the case of 5mer-596 (KLQQR), the Binding affinity under setting [1] stood at 56 Ru.
With 5mer-597 (KLVSR), the Binding affinity under setting [1] was found to be 68 Ru.
With 5mer-598 (RVRSK), the Binding affinity under setting [1] was 84 Ru.
In the case of 5mer-599 (KWVSR), under setting [1], the Binding affinity was 61 Ru.
With 5mer-600 (KLYSK), the Binding affinity under setting [1] was 64 Ru.
With 5mer-601 (RFCFK), the Binding affinity under setting [2] is listed as 13 Ru.
Consider 5mer-602 (KMSVR), for which the Binding affinity under setting [2] is reported as 12 Ru.
With 5mer-603 (RKEPK), the Binding affinity under setting [2] amounted to 27 Ru.
On to 5mer-604 (RKEGK), for which the Binding affinity under setting [2] is reported as 13 Ru.
5mer-605 (RECFK): the Binding affinity under setting [2] was found to be 22 Ru.
On the same count and under the same terms, the value for 5mer-606 (RIHWK) was 25 Ru.
For the substance 5mer-607 (RIEER), under setting [2], the Binding affinity was 25 Ru.
